Patent US7604993B2, “Combined regulation of neural cell production” (Stem Cell Therapeutics Inc., priority 2001, dated 2009)
“Also recorded” adds a separate entry of the source.

B1: CNTF: rat recombinant CNTF, ciliary neurotrophic factor (protein, UniProt P20294 1-200, looked up)
Ciliary neurotrophic factor: MAFAEQTPLTLHRRDLCSRSIWLARKIRSDLTALMESYVKHQGLNKNINLDSVDGVPVASTDRWSEMTEAERLQENLQAYRTFQGMLTKLLEDQRVHFTPTEGDFHQAIHTLMLQVSAFAYQLEELMVLLEQKIPENEADGMPATVGDGGLFEKKLWGLKVLQELSQWTVRSIHDLRVISSHQMGISALESHYGAKDKQM
B2: prolactin: prolactin, first infusion days 1-7, then CSF (Group 3) (protein, UniProt P01236 29-227, looked up)
Prolactin: LPICPGGAARCQVTLRDLFDRAVVLSHYIHNLSSEMFSEFDKRYTHGRGFITKAINSCHTSSLATPEDKEQAQQMNQKDFLSLIVSILRSWNEPLYHLVTEVRGMQEAPEAILSKAVEIEEQTKRLLEGMELIVSQVHPETKENEIYPVWSGLPSLQMADEESRLSAYYNLLHCLRRDSHKIDNYLKLLKCRIIHNNNC

Key:
neural stem cells [1] = test: Number of EGF-responsive neural stem cells (primary neurospheres) after infusion into the lateral ventricle; assay type: in vivo, mice
Source text: Thus, we infused either CNTF or EPO into the lateral ventricles of adult mice for six days, after which we either removed the entire adult ependyma/subependyma to examine the total number of EGF-responsive NSCs or examined the in vivo production of neuronal precursors. […] Therefore, EGF-responsive NSCs turn over continuously in vivo, a sub-population of which spontaneously differentiates into restricted glial precursors, while another sub-population is directed to the neuronal restricted linage by EPO.
The protocols for neural stem cell culture are described in detail in U.S. Pat. No. 5,750,376 or Shingo et al., 2001. Briefly, embryonic neural stem cells were prepared from E14 medial and lateral ganglionic eminences. Adult neural stem cells were prepared from the subventricular zone of adult mice. The tissue was cultured in basal medium containing 20 ng/ml EGF, or other growth factors as indicated in each case, to form neurospheres. The composition of the basal medium is as follows: DMEM/F12 (1:1); glucose (0.6%); glutamine (2 mM); sodium bicarbonate (3 mM); HEPES (5 mM); insulin (25 μg/ml); transferrin (100 μg/ml); progesterone ([…]); putrescine (60 μM); and selenium chloride (30 nM). […]

neural stem cells [2] = test: BrdU labelling of proliferating cells in infused animals; assay type: in vivo, mice; settings: BrdU also given to the infused animals
[3] = system: migrating neuronal progenitor cells; test: Brain anatomical analysis (Cresyl Violet, Doublecortin) in focal ischemic injury (stroke) model; assay type: in vivo; settings: rats with focal ischemic injury, end of week 6
Source text: The animals for the stroke study received unilateral devascularization of the sensorimotor cortex. Using Isoflurane anesthesia, the skin was incised and retracted and the overlying fascia were removed from the skull. A skull opening was made at the following coordinates, taking care not to damage the dura: AP +4.0 to −2.0; L 1.5 to 4 (the parasagittal ridge; Kolb et al., 1997). The dura was cut and retracted from the skull opening. A cotton swab soaked in sterile saline was gently rubbed across the exposed pia and the vessels were removed. A hole was then drilled in the contralateral hemisphere to provide an opening for the cannulae attached to the osmotic minipump at AP −0.5; L 1.5. An osmotic minipump was placed under the skin between the shoulder blades and a tube connected under the skin to the cannulae, which was attached to the skull with fast-drying cement. Once hemostasis had been achieved the scalp was sutured closed with 5-O sterile suture. The animals were given a single injection of Banamine (an analgesic) and returned to their home cage. Sham animals received only anesthesia, the bone opening, and the skin was incised and sutured. […] The animals then received various test factors, and the effects of these factors on the forelimb inhibition test and brain anatomy were assessed. […]

[4] = Forelimb inhibition test in focal ischemic injury (stroke) model; assay type: in vivo; settings: rats with focal ischemic injury; first infusion days 1-7, second infusion days 8-14
Source text: Adult male Long-Evans rats (250-350 g) were obtained from Charles River Breeding Farms and were adapted to the colony for two weeks prior to any treatment. A week before surgery the rats were given a baseline testing on the behavioral tests.
The animals for the stroke study received unilateral devascularization of the sensorimotor cortex. Using Isoflurane anesthesia, the skin was incised and retracted and the overlying fascia were removed from the skull. A skull opening was made at the following coordinates, taking care not to damage the dura: AP +4.0 to −2.0; L 1.5 to 4 (the parasagittal ridge; Kolb et al., 1997). The dura was cut and retracted from the skull opening. A cotton swab soaked in sterile saline was gently rubbed across the exposed pia and the vessels were removed. A hole was then drilled in the contralateral hemisphere to provide an opening for the cannulae attached to the osmotic minipump at AP −0.5; L 1.5. […]
Six days later the animals were assessed using the behavioral test. […]
In normal rats, swimming is accomplished by propulsion from the hind limbs. […] Inhibition of the forelimbs was assessed by filming animals while swimming. […]
The animals then received various test factors, and the effects of these factors on the forelimb inhibition test and brain anatomy were assessed. […]

[5] = system: neural stem cells in the subventricular zone; test: Subcutaneous administration, number of neural stem cells in the subventricular zone; assay type: in vivo

Molecule | increase of the number of primary neurospheres that can be obtained from the brain (neural stem cells [1]; infusion into adult mice for six days) | increase in the number of NSCs (neural stem cells [1]; infusion into lateral ventricles of adult mice for six days) | number of BrdU positive cells (neural stem cells [2]) | doublecortin staining / doublecortin positive cells in the brain [3] | forepaw inhibition / motor function in the forelimb inhibition test [4] | delivery by subcutaneous administration to modulate the number of neural stem cells in the subventricular zone [5]
B1 | about 25% | 20-25% | did not increase | – | – | –
B2 | – | – | – | high degree of doublecortin staining | improvement of motor functions; also recorded: acted to correct abnormal positioning of the forelimb during swimming; also recorded: recovery from a representative symptom of stroke; also recorded: improved the motor function | effectively delivered
